Numbering of substitutions follows the chain as printed. Numbers in names are those of the source. Bounds are passed on as bounds.

B1: Humanized 08A IgG4 Fab 100 S61N G56A (antibody, V domains shown)
VH: EVQLVQSGAEVKKPGASVKVSCKASGYTFTSYYLYWVRQAPGQGLEWIGGVNPSNAGTNFNEKFKSRVTLTVDTSISTAYMELSRLRSDDTAVYYCTRRLSHYDGGFDYWGQGTTVTVSS
VL: DIVMTQTPLSLSVTPGQPASISCRASKSVSTSGFSYLHWYLQKPGQPPQLLIFLSKYRSSGVPDRFSGSGSGTDFTLKISRVEAEDVGVYYCSQAYHLPLTFGQGTKLEIKR
notes: also called 25AVE
B2: Humanized 08A IgG4 S61N (lot 98AIO) (antibody)
heavy: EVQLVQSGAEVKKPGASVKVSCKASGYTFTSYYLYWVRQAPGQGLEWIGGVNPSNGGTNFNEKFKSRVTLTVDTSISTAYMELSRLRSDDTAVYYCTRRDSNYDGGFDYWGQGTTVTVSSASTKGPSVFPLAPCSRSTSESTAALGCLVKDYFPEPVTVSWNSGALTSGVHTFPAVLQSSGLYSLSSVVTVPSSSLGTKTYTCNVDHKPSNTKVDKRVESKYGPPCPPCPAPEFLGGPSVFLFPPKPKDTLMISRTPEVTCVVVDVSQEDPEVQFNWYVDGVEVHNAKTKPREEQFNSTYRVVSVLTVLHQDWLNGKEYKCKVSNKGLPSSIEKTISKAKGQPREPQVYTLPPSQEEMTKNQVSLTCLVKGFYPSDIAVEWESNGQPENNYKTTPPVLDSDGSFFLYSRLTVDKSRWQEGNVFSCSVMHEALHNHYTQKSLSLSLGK
light: DIVMTQTPLSLSVTPGQPASISCRASKSVSTSGFSYLHWYLQKPGQPPQLLIFLASNLESGVPDRFSGSGSGTDFTLKISRVEAEDVGVYYCQHSWELPLTFGQGTKLEIKRTVAAPSVFIFPPSDEQLKSGTASVVCLLNNFYPREAKVQWKVDNALQSGNSQESVTEQDSKDSTYSLSSTLTLSKADYEKHKVYACEVTHQGLSSPVTKSFNRGEC
notes: IgG4 S228P / kappa; also called 08A/HuPD1A-11 S61N S228P corrected IgG4 / Kappa
B3: Humanized 08A IgG4 S61N G56A (antibody, V domains shown)
VH: B1 VH with L100D, H102N
VL: B1 VL with S55A, K56S, Y57N, R58L, S59E, S93Q, Q94H, A95S, Y96W, H97E
notes: IgG4 S228P / kappa; also called 51AQK; 08A/HuPD1A-11 S61N VH G56A IgG4 S228P / Kappa
B4: Humanized 08A IgG4 Fab 098 G56A (antibody, V domains shown)
VH: B1 VH with N61S
VL: B1 VL with S55A, K56S, Y57N, R58L, S59E, S93Q, Q94H, A95S, Y96W, H97E
notes: IgG4 S228P / kappa; also called 90AVZ
B5: Humanized 08A IgG4 G56A (antibody, V domains shown)
VH: B1 VH with N61S, L100D, H102N
VL: B1 VL with S55A, K56S, Y57N, R58L, S59E, S93Q, Q94H, A95S, Y96W, H97E
notes: IgG4 S228P / kappa; also called 89AVZ; 08A/HuPD1A-11 G56A IgG4 S228P / Kappa
B6: Humanized 08A IgG4 S61N (lot 67AGG) (antibody)
heavy: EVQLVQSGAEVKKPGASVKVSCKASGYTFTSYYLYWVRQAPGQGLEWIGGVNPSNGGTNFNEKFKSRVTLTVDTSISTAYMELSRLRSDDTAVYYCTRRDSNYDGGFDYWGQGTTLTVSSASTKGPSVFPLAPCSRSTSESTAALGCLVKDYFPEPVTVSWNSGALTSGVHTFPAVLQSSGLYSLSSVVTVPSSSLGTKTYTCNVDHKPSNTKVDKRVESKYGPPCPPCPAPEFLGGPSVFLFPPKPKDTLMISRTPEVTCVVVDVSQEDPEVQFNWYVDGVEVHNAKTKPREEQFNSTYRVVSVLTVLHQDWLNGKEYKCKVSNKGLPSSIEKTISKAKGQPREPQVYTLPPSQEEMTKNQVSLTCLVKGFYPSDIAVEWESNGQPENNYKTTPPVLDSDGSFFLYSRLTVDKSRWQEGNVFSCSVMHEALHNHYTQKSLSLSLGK
light: B2 light
notes: IgG4 S228P / kappa; differs from 98AIO by an HFR4 mutation; also called 08A/HuPD1A-11 S61N WT S228P IgG4 / Kappa, with HFR4 mutation
B7: Humanized 08A IgG4 S61N N55E (antibody, V domains shown)
VH: B1 VH with N55E, A56G, L100D, H102N
VL: B1 VL with S55A, K56S, Y57N, R58L, S59E, S93Q, Q94H, A95S, Y96W, H97E
notes: IgG4 S228P / kappa; also called 50AQK; 08A/HuPD1A-11 N55E S228P IgG4 / Kappa
B8: Humanized 08A IgG4 (antibody, V domains shown)
VH: B1 VH with A56G, N61S, L100D, H102N
VL: B1 VL with S55A, K56S, Y57N, R58L, S59E, S93Q, Q94H, A95S, Y96W, H97E
notes: IgG4 S228P / kappa, no CDRH2 corrections; also called 73AGG; 08A/HuPD1A-11 S228P IgG4 / Kappa
B9: Mouse 09A (antibody, mouse IgG1, kappa, V domains shown)
VH: QVQLQQPGAELVKPGTSVKLSCKASGYTFTNYYMYWVKQRPGQGLEWIGGINPSNGGTNFNEKFKNKATLTVDSSSSTTYMQLSSLTSEDSAVYYCTRRDYRFDMGFDYWGQGTTLTVSS
VL: DIVLTQSPASLAVSLGQRAAISCRASKGVSTSGYSYLHWYQQKPGQSPKLLIYLASYLESGVPARFSGSGSGTDFTLNIHPVEEEDAATYYCQHSRDLPLTFGTGTKLELKR
notes: Mouse IgG1/kappa; also called 03AFN; Mouse x [PD-1_H] mAb (clone 09A) IgG1 / Kappa
B10: Mouse 08A (antibody, mouse IgG1, kappa, V domains shown)
VH: QVQLQQPGAELVKPGASVKLSCKASGYTFTSYYLYWMKQRPGQGLEWIGGVNPSNGGTNFSEKFKSKATLTVDKSSSTAYMQLSSLTSEDSAVYYCTRRDSNYDGGFDYWGQGTTLTVSS
VL: B9 VL with A9T, A20T, G28S, Y34F, S47P, Y53F, Y57N, R96W, D97E, T104A
notes: Mouse IgG1/kappa; also called 09AFF; parental mouse 08A antibody
B11: Mouse 08A N59E (antibody, mouse IgG1, kappa, V domains shown)
VH: B10 VH with N59E
VL: B9 VL with A9T, A20T, G28S, Y34F, S47P, Y53F, Y57N, R96W, D97E, T104A
notes: also called 39AFL; Clone 1.08 N59E
B12: Mouse 08A N59A (antibody, mouse IgG1, kappa, V domains shown)
VH: B10 VH with N59A
VL: B9 VL with A9T, A20T, G28S, Y34F, S47P, Y53F, Y57N, R96W, D97E, T104A
notes: also called 80AFH; Clone 1.08 N59A
B13: Mouse 08A N59Q (antibody, mouse IgG1, kappa, V domains shown)
VH: B10 VH with N59Q
VL: B9 VL with A9T, A20T, G28S, Y34F, S47P, Y53F, Y57N, R96W, D97E, T104A
notes: also called 38AFL; Clone 1.08 N59Q
B14: Fab 00APE (humanized 08A Fab with S61N correction) (Fab, V domains shown)
VH: B1 VH with A56G, L100D, H102N
VL: B1 VL with S55A, K56S, Y57N, R58L, S59E, S93Q, Q94H, A95S, Y96W, H97E
B15: Anti-PD-1/LAG3 bispecific antibody 90ASU (bispecific antibody, human IgG1, kappa, L234A L235A)
heavy 1: not shown
light 1: B2 light with Q128R, T182R
heavy 2: QMQLVQSGPEVKKPGTSVKVSCKASGYTFTDYNVDWVRQARGQRLEWIGDINPNDGGTIYAQKFQERVTITVDKSTSTAYMELSSLRSEDTAVYYCARNYRWFGAMDHWGQGTTVTVSSASTKGPSVFPLAPSSKSTSGGTAALGCLVKDYFPEPVTVSWNSGALTSGVHTFPAVLQSSGLYKLSSVVTVPSSSLGTQTYICNVNHKPSNTKVDKKVEPKSCDKTHTCPPCPAPEAAGGPSVFLFPPKPKDTLMISRTPEVTCVVVSVSHEDPEVKFNWYVDGVEVHNAKTKPREEQYNSTYRVVSVLTVLHQDWLNGKEYKCKVSNKALPAPIEKTISKAKGQPREPQVYVLPPSRDELTKNQVSLLCLVKGFYPSDIAVEWESNGQPENNYLTWPPVLDSDGSFFLYSKLTVDKSRWQQGNVFSCSVMHEALHNHYTQKSLSLSPG
light 2: DIVMTQTPLSLSVTPGQPASISCKASQSLDYEGDSDMNWYLQKPGQPPQLLIYGASNLESGVPDRFSGSGSGTDFTLKISRVEAEDVGVYYCQQSTEDPRTFGGGTKVEIKRTVAAPSVFIFPPSDEELKSGTATVVCLLNNFYPREAKVQWKVDNALQSGNSQESVTEQDSKDSTYSLSSYLELSKADYEKHKVYACEVTHQGLSSPVTKSFNRGEC
B16: Anti-PD-1/LAG-3 bispecific antibody 18ASS (bispecific antibody, human IgG1, kappa, L234A L235A)
heavy 1: not shown
light 1: DIVMTQTPLSLSVTPGQPASISCRASKSVSTSGFSYLHWYLQKPGQPPQLLIFLSKYRSSGVPDRFSGSGSGTDFTLKISRVEAEDVGVYYCSQAYHLPLTFGQGTKLEIKRTVAAPSVFIFPPSDERLKSGTASVVCLLNNFYPREAKVQWKVDNALQSGNSQESVTEQDSKDSTYSLSSRLTLSKADYEKHKVYACEVTHQGLSSPVTKSFNRGEC
heavy 2: B15 heavy 2
light 2: B15 light 2

T1 sequence (Q15116 25-167 limits assumed): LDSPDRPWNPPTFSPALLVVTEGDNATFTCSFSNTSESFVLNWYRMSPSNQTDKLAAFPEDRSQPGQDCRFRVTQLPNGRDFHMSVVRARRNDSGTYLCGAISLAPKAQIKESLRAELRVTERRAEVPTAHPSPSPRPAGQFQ

The first experiment addresses T1, polyhistidine-tagged human PD-1 (hPD1-His, 98AFK) (human, UniProt Q15116 25-167, limits assumed).
T1 construct: Lot 98AFK; also called human PD1-His; Human PD-1-His; not shown: polyhistidine tag
Nature of the experiment: SPR solution affinity; reference Humanized 08A IgG4 S61N (98AIO). The method, then: The titration series were incubated for 16-24 hours to reach equilibrium at room temperature. The unbound sites were measured using a BIAcore chip immobilized with antigen in a competition mode where SPR signal detected corresponded to unbound antibody.
The titration series following >16 hr. incubation were injected over the sensor chip immobilized with hPD1-His (above). Free, unbound antibodies concentrations were measured as proportional to RU after 120 seconds (for 500 pM mAb series) or 400 seconds (for 100 pM mAb series) of injection at 10 μL/min. After each cycle, surfaces were regenerated with a 30 second injection of 1:1 mixture of 3M MgCl2 and pH 2.0 10 mM glycine at 30 μL/min
Data analyses were performed using KINEXA Pro Version 1.02 (Sapydyne) where RUs were normalized and plotted against concentrations.
In the case of B1, the “KD (REF) / KD” value is > 13 ratio.
Still for that read-out and setting: for B2 the value was 1 ratio.
On the same count and under the same terms, next, B3: 1 ratio; B4: 1.7 ratio; B5: 0.6 ratio.

The target of another experiment is T1, polyhistidine-tagged human PD-1 …. Kind of experiment: SPR capture format; reference Mouse 08A. The method, then: A surface plasmon resonance (SPR)-based assay utilizing capture mode was used to determine the binding kinetics and affinities of anti-PD-1 antibodies against polyhistidine-tagged human PD-1 (hPD1-His, 98AFK). Following manufacture instructions, a series S sensor chip CM5 (GE Healthcare, BR100530) was activated using an amine-coupling kit (GE Healthcare, BR100050). Either human capture kit (anti-human Fc, 25 μg/mL, GE Healthcare, BR100839) or mouse capture kit (anti-mouse Fc, 30 μg/mL, GE Healthcare, BR100838) antibody diluted in the supplied pH 5.0, 10 mM sodium acetate buffer was immobilized onto the activated surface for 7 minutes. After immobilization, surfaces were deactivated with 1M ethanolamine/HCl (pH 8.5) for 7 minutes. The final immoblization levels reached ˜8,000 resonance units (RU) for mouse capture or 12,000 RU for human capture in each of the four flow cells.
Binding kinetics were measured on a biacore T200 in HBS-EP+(0.01 M HEPES pH 7.4, 0.15 M NaCl, 3 mM EDTA, 0.05% v/v Surfactant P20) running buffer at 25° C. Antibodies were captured either on mouse or human Fc capture surfaces at 10 μL/min flow rate. Antibodies were captured on flow cells 2, 3 and 4. Flow cell 1 was used as a reference with no antibody captured. A 6-point, 2-fold serial dilutions of the analyte 98AFK (hPD1-His), starting at 20 nM, were prepared in the running buffer (HBS-EP+). Two buffer blanks were included for double referencing. Titration series were injected for 3 minutes at 50 μl/min followed by 600 seconds of dissociation. After each cycle, surfaces were regenerated with a 30 second injection of 3M MgCl2 at […] on the anti-human Fc chip or 180 seconds of 10 mM Glycine pH 1.7 at 10 μl/min on the anti-mouse Fc chip.
Sensorgram processing and data analysis were performed with Biacore T200 Evaluation Software Version 2.0.4 (GE Healthcare). […] Processed curves were globally fitted to a 1:1 binding model to determine the association rate constant, kₒₙ (M⁻¹s⁻¹, where “M” equals molar and “s” equals seconds) and the dissociation rate constant, koff (s⁻¹). These rate constants were used to calculate the equilibrium dissociation constant, KD (M)=koff/kₒₙ.
Turning to B1, the “KD (REF) / KD” value amounted to 5.7 ratio.
Take B2: the “KD (REF) / KD” value came out at 4.4 ratio.
With B3, the “KD (REF) / KD” value stood at 4.2 ratio.
On the same count and under the same terms, for B6 the value was 5.2 ratio; for B4, 3 ratio.
On the same count and under the same terms, next, B5: 2.4 ratio; B7: 0.8 ratio.
For B8, the “KD (REF) / KD” value turned out to be 1.7 ratio.
As to B9, the “KD (REF) / KD” value was 0.5 ratio.
Same read-out and setting: next, B10: 1 ratio; B11: 0.03 ratio.
Still for that read-out and setting: for B12 the value was 0.4 ratio; for B13, 0.04 ratio.

For a further experiment, the target named is human PD-1 on cells (human, UniProt Q15116 25-288). Kind of experiment: cell-based or functional assay.
human PD-1 on cells, sequence (Q15116 25-288): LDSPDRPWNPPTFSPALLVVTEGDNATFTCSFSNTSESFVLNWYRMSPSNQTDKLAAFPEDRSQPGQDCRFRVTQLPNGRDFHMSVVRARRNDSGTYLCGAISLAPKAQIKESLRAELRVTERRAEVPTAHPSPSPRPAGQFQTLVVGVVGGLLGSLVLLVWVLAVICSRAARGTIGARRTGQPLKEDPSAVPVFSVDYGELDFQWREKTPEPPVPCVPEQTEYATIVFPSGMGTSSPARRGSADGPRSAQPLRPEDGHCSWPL
For B14, the “AVG EC50 (nM), IL-2 luciferase reporter, Jurkat.hPD-1.IL2luc + THP-1.PD-L1 assay” value (“AVG EC50 (nM), IL-2 luciferase reporter” below) is 3.32 nM.
Take B15: the “AVG EC50 (nM), IL-2 luciferase reporter” value worked out at 2.54 nM.
As to B16, the “AVG EC50 (nM), IL-2 luciferase reporter” value was 0.55 nM.

For the origin of these results see patent publication US20210371530A1 (Merck Sharp & Dohme, published 2021).
